Test results from the supplement of paper PMC11136658.

Tested on: peptide library, one residue held at a place counted from the Y acceptor
Assay: relative phosphorylation of the sub-library (ratio to the mean residue at this position); higher = residue favoured
Procedure, shortened: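 Biotinylated Tyr-centred peptide library mixtures, each fixing one residue at one position from −5 to +5, were incubated with purified recombinant kinases in 384-well plates for 90 min with 50 μM ATP plus γ-32P-ATP. Streptavidin membranes captured the peptides, which were rinsed and quantified by phosphorimaging and ImageQuant. At each position, intensities were divided by the sum of the 18 randomized residues (16 for the Ser/Thr-free library) and multiplied by that number. Each value is phosphorylation relative to the mean randomized residue.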

Sequence of MERTK, construct: aa578-872, human (Q12866 578-872, looked up): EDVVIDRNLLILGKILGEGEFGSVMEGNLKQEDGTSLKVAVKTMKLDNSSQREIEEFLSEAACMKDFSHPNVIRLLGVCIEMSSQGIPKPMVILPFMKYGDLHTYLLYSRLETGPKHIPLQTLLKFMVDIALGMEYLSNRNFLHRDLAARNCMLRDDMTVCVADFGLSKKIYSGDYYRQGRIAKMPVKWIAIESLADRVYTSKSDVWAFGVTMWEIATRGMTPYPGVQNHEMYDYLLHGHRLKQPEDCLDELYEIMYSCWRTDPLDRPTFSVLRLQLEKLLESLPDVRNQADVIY
Sequence of MET, construct: aa956-end, human (P08581 956-1390, looked up): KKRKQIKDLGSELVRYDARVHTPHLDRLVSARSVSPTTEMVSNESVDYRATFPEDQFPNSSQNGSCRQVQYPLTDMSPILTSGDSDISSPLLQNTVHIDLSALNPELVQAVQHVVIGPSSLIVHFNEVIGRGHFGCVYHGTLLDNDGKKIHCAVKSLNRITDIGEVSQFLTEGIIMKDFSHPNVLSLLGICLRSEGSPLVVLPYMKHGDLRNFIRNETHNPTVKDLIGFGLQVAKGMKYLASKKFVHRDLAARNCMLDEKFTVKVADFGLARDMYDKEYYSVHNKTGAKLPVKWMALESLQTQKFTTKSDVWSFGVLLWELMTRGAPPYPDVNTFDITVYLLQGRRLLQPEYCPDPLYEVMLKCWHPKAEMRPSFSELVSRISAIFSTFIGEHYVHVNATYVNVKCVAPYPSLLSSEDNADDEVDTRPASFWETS

MERTK, construct: aa578-872, human (from UniProt Q12866)
relative phosphorylation
Conditions	at +1	at +2	at +3	at +4	at +5	at -1	at -2	at -3	at -4	at -5
A fixed	2.07	0.87	0.578	0.92	1.15	0.711	1.06	1.01	1.28	1.1
D fixed	0.89	0.601	0.483	0.962	0.839	0.591	0.967	1.27	1.12	0.979
E fixed	1.69	1.01	0.426	1.27	0.786	0.468	1.28	1.55	1.44	0.974
F fixed	1.01	1.64	1.93	1.14	0.565	1.75	0.655	0.836	0.595	1.03
G fixed	0.859	0.321	0.63	1.37	1.61	0.299	1.63	1.28	1.46	1.31
H fixed	0.791	0.687	0.848	1.12	1.01	1.4	0.989	0.875	0.891	0.994
I fixed	0.708	1.34	1.58	0.549	0.621	2.37	0.533	0.482	0.84	0.889
K fixed	0.25	0.594	0.254	0.822	0.996	0.436	0.948	0.746	0.911	1.05
L fixed	0.831	1.4	2.13	0.799	0.745	2.69	0.777	0.863	1.02	0.993
M fixed	1.4	1.2	1.64	1.09	0.917	1.14	0.68	0.967	0.968	1
N fixed	0.447	0.768	0.465	0.76	0.879	0.842	1.26	1.21	0.926	1.13
P fixed	0.172	0.684	1.17	1.2	2.65	0.481	1.18	1.32	1.25	1.24
Q fixed	1.04	0.695	0.72	0.962	0.81	0.63	1.19	0.953	1.16	1.09
R fixed	0.353	0.679	0.392	1.07	0.991	0.439	1.09	0.775	1.2	1.13
S fixed	1.33	0.725	0.562	0.926	1.08	0.517	1.34	1.16	0.807	0.783
T fixed	1.3	0.973	0.838	1	0.97	0.939	1.1	1.17	0.667	0.874
V fixed	1.53	1.33	1.55	0.904	0.756	1.38	0.842	0.803	0.866	0.862
W fixed	1.34	2.47	1.8	1.14	0.608	0.916	0.484	0.743	0.594	0.564
pThr fixed	1.89	1.18	0.3	0.633	0.568	0.718	0.915	1.1	0.901	0.902
pTyr fixed	1.96	2.62	0.613	0.678	0.61	2.26	1.19	1.46	1.13	0.957

MET, construct: aa956-end, human (from UniProt P08581)
relative phosphorylation
Conditions	at +1	at +2	at +3	at +4	at +5	at -1	at -2	at -3	at -4	at -5
A fixed	1.33	1.03	0.632	0.901	1.11	0.739	1.1	0.977	1.04	1.05
D fixed	0.433	0.808	0.32	0.658	0.938	1.86	1.52	1.64	1.4	1.27
E fixed	0.821	0.83	0.252	0.581	0.861	1.37	1.45	1.79	1.61	1.09
F fixed	1.25	1.07	1.28	1.3	1.05	0.688	0.534	0.663	0.914	0.869
G fixed	0.609	0.616	0.564	1.02	0.906	0.478	1.21	1.22	1.21	1.11
H fixed	1.34	0.874	0.869	0.998	0.879	1.24	0.819	0.911	0.916	1
I fixed	1.4	0.913	2.4	0.797	0.796	1.7	0.711	0.529	0.737	0.721
K fixed	0.531	0.705	0.431	0.87	0.978	0.496	0.738	0.866	0.86	1.19
L fixed	0.758	0.935	1.9	0.771	1.02	1.06	0.704	0.558	0.728	0.724
M fixed	0.84	0.833	1.43	0.883	0.965	0.774	0.583	0.596	0.746	0.733
N fixed	0.574	1.29	0.537	0.875	1.02	1.26	1.16	1.37	0.984	0.995
P fixed	0.442	0.961	1.36	1.09	1.21	0.659	1.59	1.22	1.18	1.16
Q fixed	1.21	1.03	0.578	0.994	0.932	1.12	1.17	1.1	1.07	0.976
R fixed	0.887	1.07	0.554	1.06	1.05	0.597	0.88	0.918	0.995	1.18
S fixed	1.11	1.25	0.616	0.957	1.2	0.704	1.34	1.27	0.948	1
T fixed	1.26	1.18	0.723	0.899	1.02	1.11	0.99	0.977	0.767	0.893
V fixed	1.99	1.07	1.72	0.851	0.867	1.21	0.868	0.605	0.711	0.735
W fixed	1.22	1.54	1.84	2.49	1.2	0.931	0.629	0.784	1.19	1.31
pThr fixed	1.16	1.4	0.271	0.399	0.597	2.21	1.93	1.77	1.38	1.32
pTyr fixed	3.19	2.63	0.524	0.871	0.771	4.16	1.47	1.82	2.14	1.64
